Experimental data from US11175289B2, “Application of TRPM8 protein, related peptide fragment and their antibodies” (priority 2016, dated 2021).
“Also recorded” adds a separate entry of the source.

Experiments:
[1] = tested on: T lymphocyte in prostate of the modeling animal; assay: CD3 immunofluorescence staining of prostate tissue; type: in vivo, rat; conditions: SD rats immunized with antigen combined with CFA
From the text: (§1) Experiment is designed and performed as follows. Firstly, pure TRPM8 protein is combined with Complete Freund's adjuvant (CFA) to establish an animal model of CP/CPPS. The animal model is compared with a prostatein homogenate modeling method. Meanwhile, TRPM8 in prostatein homogenate is removed by immunomagnetic beads; wherein the prostatein homogenate is molded for serving as a negative control. HE staining method is utilized to evaluate the severity of inflammation in prostate tissue of each modeling group of animal, and the severity of inflammation in prostate tissue is performed with pathological score. CD3 immunofluorescence method is adopted to observe infiltrating of T lymphocyte in prostate of the modeling animal.
In addition, the prostate tissue sections of each group of animals to be tested are taken, baked in an oven for 30 minutes at 60° C., then subjected to CD3 immunofluorescence, and finally added with anti-fluorescence quenching agent for sealing, observed under a microscope, wherein photos are taken.
In order to improve the inflammatory cell containing a plurality of T-lymphocytes, the CD3 molecules are performed with immunofluorescence staining. The results are shown in FIG. 3: A: control blank group; B: protein homogenate group; C: pure TRPM8 protein group; D: TRPM8 protein free homogenate group.

[2] = tested on: prostate tissue of SD rats; assay: CP/CPPS animal model by immunization with antigen plus CFA; HE staining and pathological score of prostate; type: in vivo, rat
From the text: as §1
Take 40 8-week-old SPF level male SD rats, with weights at a range of 250±20 g. The rats are purchased from Shanghai Sijie laboratory Co., Ltd with a license number of SCXK (Shanghai) 2012-0006. Under an aseptic condition, prostate of an SD rats is taken to prepare prostatein homogenate and TRPM8 removed homogenate protein. Grouping of immune animals in experiments is as follows. 40 8-week-old SD rats are randomly classified into 4 groups, i.e., a homogenate protein group, a TRPM8 removed homogenate protein group, a pure TRPM8 protein group and a control group; wherein each group comprises 10 rats. After 8 weeks of immune, each group of the rats are injected with 10% chloral hydrate on abdomen for anesthesia, and plasma and prostate of each group of rats are respectively collected. Preparation of prostate pathological section: the paraffin embedded prostate sections of the rats in each experimental group are sent to a drying oven, heated under 60° C. for 30 min. […]
According to HE staining result, prostatitis degree of each group of rats are pathologically scored under standards as follows. […]
Each prostate section is scored by three associate professors in pathology according to the standards mentioned above under a randomized and double-blind principle, and an average value calculated is a histological score indicating degree of the prostatitis of the animal. […]

B1: TRPM8 protein: TRPM8 protein purchased from ProteinTech Group; combined with CFA to immunize SD rats (protein)
chain: MSFRAARLSMRNRRNDTLDSTRTLYSSASRSTDLSYSESDLVNFIQANFKKRECVFFTKDSKATENVCKCGYAQSQHMEGTQINQSEKWNYKKHTKEFPTDAFGDIQFETLGKKGKYIRLSCDTDAEILYELLTQHWHLKTPNLVISVTGGAKNFALKPRMRKIFSRLIYIAQSKGAWILTGGTHYGLMKYIGEVVRDNTISRSSEENIVAIGIAAWGMVSNRDTLIRNCDAEGYFLAQYLMDDFTRDPLYILDNNHTHLLLVDNGCHGHPTVEAKLRNQLEKYISERTIQDSNYGGKIPIVCFAQGGGKETLKAINTSIKNKIPCVVVEGSGQIADVIASLVEVEDALTSSAVKEKLVRFLPRTVSRLPEEETESWIKWLKEILECSHLLTVIKMEEAGDEIVSNAISYALYKAFSTSEQDKDNWNGQLKLLLEWNQLDLANDEIFTNDRRWESADLQEVMFTALIKDRPKFVRLFLENGLNLRKFLTHDVLTELFSNHFSTLVYRNLQIAKNSYNDALLTFVWKLVANFRRGFRKEDRNGRDEMDIELHDVSPITRHPLQALFIWAILQNKKELSKVIWEQTRGCTLAALGASKLLKTLAKVKNDINAAGESEELANEYETRAVELFTECYSSDEDLAEQLLVYSCEAWGGSNCLELAVEATDQHFIAQPGVQNFLSKQWYGEISRDTKNWKIILCLFIIPLVGCGFVSFRKKPVDKHKKLLWYYVAFFTSPFVVFSWNVVFYIAFLLLFAYVLLMDFHSVPHPPELVLYSLVFVLFCDEVRQWYVNGVNYFTDLWNVMDTLGLFYFIAGIVFRLHSSNKSSLYSGRVIFCLDYIIFTLRLIHIFTVSRNLGPKIIMLQRMLIDVFFFLFLFAVWMVAFGVARQGILRQNEQRWRWIFRSVIYEPYLAMFGQVPSDVDGTTYDFAHCTFTGNESKPLCVELDEHNLPRFPEWITIPLVCIYMLSTNILLVNLLVAMFGYTVGTVQENNDQVWKFQRYFLVQEYCSRLNIPFPFIVFAYFYMVVKKCFKCCCKEKNMESSVCCFKNEDNETLAWEGVMKENYLVKINTKANDTSEEMRHRFRQLDTKLNDLKGLLKEIANKIK
With B1 the “CD3 immunofluorescence staining of prostate stromal” value [1] was “A large area of CD3 molecule marked by red luminescence”, the “pathogenicity causing CP/CPPS” value ([2]; SD rats immunized with antigen) was “successfully induces generation of CP/CPPS; also recorded: strong pathogenicity causing CP/CPPS” and the “inflammatory cell infiltration in prostate (HE staining)” value ([2]; SD rats immunized with antigen combined with CFA, 8 weeks) was “a plurality of inflammatory cell infiltration”. For the same molecule, the “histological score (pathological evaluation of prostatitis degree)” value ([2]; SD rats immunized with antigen combined with CFA, 8 weeks, score 0-3, M±SD) was 2.7000±0.4830.
